Assay results from article PMC5855441, “Detection of Thrombin Based on Fluorescence Energy Transfer between Semiconducting Polymer Dots and BHQ-Labelled Aptamers”.

Target: thrombin (UniProt P00734;P00734 328-363;364-622)
Experiment: fluorescence turn-on (FRET Pdots to BHQ-aptamer); 130 nM thrombin, Pdots present; F/F0 = 6.5; Buffer, salt and pH not given in the material (Hepes listed as reagent); incubation 60 min; Pdots-BHQ-TBA quenching plot at 298 K

B1: BHQ-TBA (BHQ-labelled thrombin aptamer) (ssDNA)
DNA: GGTTGGTGTGGTTGG
- binding result: binds
